This passage reports activity (% 7mGp of released cap) results from US8034355.

In this data set the target is VSV L protein (wild type, rVSV) (Vesicular stomatitis Indiana virus) (UniProt P03523). The following applies: 5' Gppp cap (7mGpppAm when fully methylated).
Chain of UniProt P03523 (P03523 whole entry): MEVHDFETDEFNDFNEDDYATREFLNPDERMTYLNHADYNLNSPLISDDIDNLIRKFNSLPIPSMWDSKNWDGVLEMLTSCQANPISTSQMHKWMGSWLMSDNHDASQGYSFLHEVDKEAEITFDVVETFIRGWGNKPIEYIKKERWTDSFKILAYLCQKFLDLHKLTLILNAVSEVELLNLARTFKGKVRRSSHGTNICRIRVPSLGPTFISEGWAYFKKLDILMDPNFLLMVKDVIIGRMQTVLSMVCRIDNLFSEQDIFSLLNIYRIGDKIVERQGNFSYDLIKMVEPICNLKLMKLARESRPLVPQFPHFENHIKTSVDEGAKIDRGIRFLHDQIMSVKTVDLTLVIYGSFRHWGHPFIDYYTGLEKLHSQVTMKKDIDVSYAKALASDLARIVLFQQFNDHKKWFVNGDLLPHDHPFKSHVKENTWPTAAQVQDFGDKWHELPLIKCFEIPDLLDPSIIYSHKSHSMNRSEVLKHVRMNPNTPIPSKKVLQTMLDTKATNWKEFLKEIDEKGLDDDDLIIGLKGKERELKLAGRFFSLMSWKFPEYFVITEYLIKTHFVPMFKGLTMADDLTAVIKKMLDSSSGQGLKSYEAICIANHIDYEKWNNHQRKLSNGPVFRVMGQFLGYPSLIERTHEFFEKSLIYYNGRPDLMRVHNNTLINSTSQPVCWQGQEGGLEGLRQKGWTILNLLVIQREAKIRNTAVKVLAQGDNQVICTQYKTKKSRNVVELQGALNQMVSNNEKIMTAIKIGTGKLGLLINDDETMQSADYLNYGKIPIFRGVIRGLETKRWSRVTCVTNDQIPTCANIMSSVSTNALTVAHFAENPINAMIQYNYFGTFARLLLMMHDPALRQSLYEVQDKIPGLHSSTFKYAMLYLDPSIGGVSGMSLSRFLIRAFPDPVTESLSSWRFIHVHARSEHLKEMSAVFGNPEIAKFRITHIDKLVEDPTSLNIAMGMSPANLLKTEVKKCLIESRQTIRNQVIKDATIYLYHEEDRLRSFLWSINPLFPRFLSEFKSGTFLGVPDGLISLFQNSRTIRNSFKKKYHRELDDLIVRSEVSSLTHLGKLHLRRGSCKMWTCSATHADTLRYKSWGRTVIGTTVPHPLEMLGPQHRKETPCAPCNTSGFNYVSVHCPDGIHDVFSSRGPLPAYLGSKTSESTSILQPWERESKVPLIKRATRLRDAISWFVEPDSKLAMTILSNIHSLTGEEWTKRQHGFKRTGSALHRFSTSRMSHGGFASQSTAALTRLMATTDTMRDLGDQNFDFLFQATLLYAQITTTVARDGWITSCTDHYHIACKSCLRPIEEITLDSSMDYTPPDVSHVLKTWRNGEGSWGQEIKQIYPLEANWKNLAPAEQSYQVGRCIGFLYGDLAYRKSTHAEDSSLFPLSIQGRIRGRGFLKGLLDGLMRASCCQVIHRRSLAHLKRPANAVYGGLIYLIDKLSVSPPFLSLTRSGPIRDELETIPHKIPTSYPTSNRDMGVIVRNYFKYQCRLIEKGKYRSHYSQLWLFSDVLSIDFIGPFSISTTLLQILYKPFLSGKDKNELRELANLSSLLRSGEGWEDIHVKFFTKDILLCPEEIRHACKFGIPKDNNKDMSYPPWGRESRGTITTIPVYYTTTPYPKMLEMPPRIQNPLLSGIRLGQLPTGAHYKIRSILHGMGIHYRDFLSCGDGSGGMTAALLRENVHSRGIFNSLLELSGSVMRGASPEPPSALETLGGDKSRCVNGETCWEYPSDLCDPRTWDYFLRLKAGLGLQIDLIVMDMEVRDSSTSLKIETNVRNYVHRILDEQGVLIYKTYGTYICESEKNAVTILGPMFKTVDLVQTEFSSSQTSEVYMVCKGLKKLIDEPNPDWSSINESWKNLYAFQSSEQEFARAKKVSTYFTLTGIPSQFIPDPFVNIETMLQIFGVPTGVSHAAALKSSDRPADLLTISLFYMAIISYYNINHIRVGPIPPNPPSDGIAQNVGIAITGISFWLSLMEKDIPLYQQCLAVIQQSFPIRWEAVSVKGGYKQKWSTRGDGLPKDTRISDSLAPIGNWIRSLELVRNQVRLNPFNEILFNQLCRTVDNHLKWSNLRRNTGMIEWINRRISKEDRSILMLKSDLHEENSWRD

In the case of AACAG, the activity (% 7mGp of released cap) was found to be 97.
